The results in this text go back to PMC5587609.

What is called stoichiometry N is a count of units in the complex or per binding partner.

In experiment [1] the target is TRPV6*-del2 (TRPV6* with six residues, 475–480, deleted in the S4–S5 linker) (rat) (UniProt Q9R186). Briefly: SEC; FSEC traces of purified protein following tryptophan fluorescence; elution time corresponding to the tetrameric assembly. For orientation: SEC sorts molecules by how far they enter the pores of the column.
For experiment [2], the target named is TRPV6*-del4 (TRPV6* with ten residues, 471–480, deleted in the S4–S5 linker) (rat) (UniProt Q9R186). The description is as above.
The target in experiment [3] is TRPV6*-del3 (TRPV6* with eight residues, 473–480, deleted in the S4–S5 linker) (rat) (UniProt Q9R186). The description is as above.
The target in experiment [4] is TRPV6* (rat TRPV6 residues 1–668 with I62Y, L92N and M96Q; L495Q reverted to the native leucine) (rat) (UniProt Q9R186). The experiment can be described thus: crystal structure; hanging drop, 20–24% PEG 350 MME, 50 mM NaCl, 50 mM Tris-HCl pH 8.0–8.5, 20 °C; also with 10 mM CaCl2 or 1 mM GdCl3; homotetramer.
For experiment [5] the target is unchanged. Briefly: SEC; FSEC traces of purified protein following tryptophan fluorescence; elution time corresponding to the tetrameric assembly.
The target in experiment [6] is TRPV6_(cryst) (rat TRPV6 residues 1–668 with I62Y, L92N, M96Q and L495Q) (rat) (UniProt Q9R186). Briefly: crystal structure; hanging drop, 20–24% PEG 350 MME, 50 mM NaCl, 50 mM Tris-HCl pH 8.0–8.5, 20 °C; also with 10 mM CaCl2 or 1 mM GdCl3; homotetramer.
The target in experiment [7] is TRPV6*-del1 (TRPV6* with four residues, 477–480, deleted in the S4–S5 linker) (rat) (UniProt Q9R186). Briefly: SEC; FSEC traces of purified protein following tryptophan fluorescence; elution time corresponding to the tetrameric assembly.

Regarding “TRPV6*-del2 (TRPV6* with six residues, 475–480, deleted in the S4–S5 linker) (from UniProt Q9R186 1-668)”, in experiment [1], the stoichiometry N amounted to 4.

“TRPV6*-del4 (TRPV6* with ten residues, 471–480, deleted in the S4–S5 linker) (from UniProt Q9R186 1-668)”: the stoichiometry N in experiment [2] turned out to be 4.

With “TRPV6*-del3 (TRPV6* with eight residues, 473–480, deleted in the S4–S5 linker) (from UniProt Q9R186 1-668)”, in experiment [3], the stoichiometry N came out at 4.

For the substance “TRPV6* (rat TRPV6 residues 1–668 with I62Y, L92N and M96Q; L495Q reverted to the native leucine) (from UniProt Q9R186 1-668)”, the stoichiometry N in experiment [4] and in experiment [5] was 4 in each case.

“TRPV6_(cryst) (rat TRPV6 residues 1–668 with I62Y, L92N, M96Q and L495Q) (from UniProt Q9R186 1-668)”: the stoichiometry N in experiment [6] was 4.

In the case of “TRPV6*-del1 (TRPV6* with four residues, 477–480, deleted in the S4–S5 linker) (from UniProt Q9R186 1-668)”, the stoichiometry N in experiment [7] was found to be 4.
